Earlier results as cited in publication PMC8174820.

Test system: Tyr134
Test: chemical modification

Cellular retinoic acid binding protein 2 (CRABP2) (Homo sapiens (inferred; the review discusses the human proteome but does not name the species for CRABP2))
pKa: ∼7.6
